Experiments:
[1] = molecular target: αvβ6 integrin on DX3puroβ6 cells (human) (UniProt P06756); assay: cell binding of the radiotracer, DX3puroβ6 cells (FIG. 27)
[2] = molecular target: αvβ6 integrin (purified, captured on the ELISA plate) (UniProt P06756); assay: ELISA (format not detailed at this place); not bearing K(IPA)E
[3] = molecular target: αvβ6 integrin on DX3puroβ6 cells (human) (UniProt P06756); assay: internalization of the radiotracer, DX3puroβ6 cells (FIG. 27)

Sequence of αvβ6 integrin on DX3puroβ6 cells (human) (P06756 31-1048 limits assumed, chain 1 of 2): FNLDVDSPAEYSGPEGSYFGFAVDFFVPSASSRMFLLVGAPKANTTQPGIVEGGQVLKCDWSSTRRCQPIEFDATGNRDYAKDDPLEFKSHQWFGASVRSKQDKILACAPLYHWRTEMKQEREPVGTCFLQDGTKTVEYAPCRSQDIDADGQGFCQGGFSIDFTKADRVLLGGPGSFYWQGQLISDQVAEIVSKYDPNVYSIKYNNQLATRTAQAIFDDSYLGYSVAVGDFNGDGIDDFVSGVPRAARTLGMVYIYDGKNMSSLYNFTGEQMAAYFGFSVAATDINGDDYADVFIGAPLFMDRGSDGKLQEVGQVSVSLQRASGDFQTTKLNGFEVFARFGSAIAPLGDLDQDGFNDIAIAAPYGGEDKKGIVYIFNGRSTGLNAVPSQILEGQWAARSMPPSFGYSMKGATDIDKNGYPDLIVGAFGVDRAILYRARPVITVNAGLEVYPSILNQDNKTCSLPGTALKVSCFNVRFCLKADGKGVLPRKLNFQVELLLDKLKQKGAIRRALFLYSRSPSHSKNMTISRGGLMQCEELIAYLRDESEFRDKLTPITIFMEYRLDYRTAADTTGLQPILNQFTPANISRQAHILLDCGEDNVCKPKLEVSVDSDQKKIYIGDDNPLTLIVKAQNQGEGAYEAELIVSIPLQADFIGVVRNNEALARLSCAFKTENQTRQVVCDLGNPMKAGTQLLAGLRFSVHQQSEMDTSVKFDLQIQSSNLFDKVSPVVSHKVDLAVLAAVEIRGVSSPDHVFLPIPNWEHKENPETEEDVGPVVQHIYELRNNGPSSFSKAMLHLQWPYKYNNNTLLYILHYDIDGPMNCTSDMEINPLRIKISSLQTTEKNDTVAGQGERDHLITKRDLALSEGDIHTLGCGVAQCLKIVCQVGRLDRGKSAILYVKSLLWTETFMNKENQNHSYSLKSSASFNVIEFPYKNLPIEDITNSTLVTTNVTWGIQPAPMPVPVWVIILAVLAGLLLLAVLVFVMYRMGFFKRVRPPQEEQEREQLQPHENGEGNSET
Sequence of αvβ6 integrin on DX3puroβ6 cells (human) (P18564 22-788 limits assumed, chain 2 of 2, further chain): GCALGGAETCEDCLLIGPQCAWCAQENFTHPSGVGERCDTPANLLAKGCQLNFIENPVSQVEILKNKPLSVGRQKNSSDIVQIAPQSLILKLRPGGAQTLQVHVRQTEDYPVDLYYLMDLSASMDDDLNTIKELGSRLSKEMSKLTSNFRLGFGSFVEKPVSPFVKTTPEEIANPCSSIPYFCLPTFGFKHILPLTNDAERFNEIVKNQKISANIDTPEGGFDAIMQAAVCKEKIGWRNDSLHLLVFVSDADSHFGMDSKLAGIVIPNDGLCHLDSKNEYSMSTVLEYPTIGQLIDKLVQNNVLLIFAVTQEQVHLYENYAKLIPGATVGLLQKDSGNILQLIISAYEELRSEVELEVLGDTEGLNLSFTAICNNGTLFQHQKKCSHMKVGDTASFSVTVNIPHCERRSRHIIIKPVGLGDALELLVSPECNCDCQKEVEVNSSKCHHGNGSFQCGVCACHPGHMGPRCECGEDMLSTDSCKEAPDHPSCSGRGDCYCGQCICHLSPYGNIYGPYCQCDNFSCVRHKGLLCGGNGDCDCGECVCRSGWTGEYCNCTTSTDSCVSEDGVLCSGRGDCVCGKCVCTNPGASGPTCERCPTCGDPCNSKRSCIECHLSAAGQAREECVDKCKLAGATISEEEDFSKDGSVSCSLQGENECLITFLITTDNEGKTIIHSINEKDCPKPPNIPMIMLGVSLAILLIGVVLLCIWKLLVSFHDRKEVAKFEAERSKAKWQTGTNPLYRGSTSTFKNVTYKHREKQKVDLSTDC
Sequence of αvβ6 integrin (purified, captured on the ELISA plate) (P06756 31-992, chain 1 of 2): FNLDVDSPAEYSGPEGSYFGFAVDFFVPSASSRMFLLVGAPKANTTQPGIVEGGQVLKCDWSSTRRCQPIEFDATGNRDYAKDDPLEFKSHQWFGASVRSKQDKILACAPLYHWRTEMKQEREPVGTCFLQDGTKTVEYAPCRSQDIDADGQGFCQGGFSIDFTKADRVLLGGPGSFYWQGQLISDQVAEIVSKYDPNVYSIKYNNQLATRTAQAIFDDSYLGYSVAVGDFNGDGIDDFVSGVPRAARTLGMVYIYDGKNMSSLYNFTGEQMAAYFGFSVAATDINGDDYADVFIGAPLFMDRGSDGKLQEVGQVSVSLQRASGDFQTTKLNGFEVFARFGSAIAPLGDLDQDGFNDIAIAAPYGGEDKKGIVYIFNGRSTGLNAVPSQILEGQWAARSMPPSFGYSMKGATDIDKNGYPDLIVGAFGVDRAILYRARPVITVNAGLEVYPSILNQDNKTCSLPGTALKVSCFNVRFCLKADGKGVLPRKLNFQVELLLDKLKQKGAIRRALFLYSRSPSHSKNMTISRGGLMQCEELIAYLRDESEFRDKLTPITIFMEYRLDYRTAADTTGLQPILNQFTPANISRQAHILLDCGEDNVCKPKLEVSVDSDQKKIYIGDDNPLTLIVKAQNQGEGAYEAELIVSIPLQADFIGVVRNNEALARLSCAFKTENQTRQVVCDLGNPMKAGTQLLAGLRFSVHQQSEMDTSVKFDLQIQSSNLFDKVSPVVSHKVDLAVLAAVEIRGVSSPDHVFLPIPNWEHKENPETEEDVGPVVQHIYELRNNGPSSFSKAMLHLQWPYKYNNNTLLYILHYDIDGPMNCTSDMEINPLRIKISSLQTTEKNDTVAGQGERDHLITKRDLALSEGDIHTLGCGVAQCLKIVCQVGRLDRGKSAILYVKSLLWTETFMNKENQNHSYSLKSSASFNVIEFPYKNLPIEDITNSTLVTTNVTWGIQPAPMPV
Sequence of αvβ6 integrin (purified, captured on the ELISA plate) (P18564 22-707, chain 2 of 2, further chain): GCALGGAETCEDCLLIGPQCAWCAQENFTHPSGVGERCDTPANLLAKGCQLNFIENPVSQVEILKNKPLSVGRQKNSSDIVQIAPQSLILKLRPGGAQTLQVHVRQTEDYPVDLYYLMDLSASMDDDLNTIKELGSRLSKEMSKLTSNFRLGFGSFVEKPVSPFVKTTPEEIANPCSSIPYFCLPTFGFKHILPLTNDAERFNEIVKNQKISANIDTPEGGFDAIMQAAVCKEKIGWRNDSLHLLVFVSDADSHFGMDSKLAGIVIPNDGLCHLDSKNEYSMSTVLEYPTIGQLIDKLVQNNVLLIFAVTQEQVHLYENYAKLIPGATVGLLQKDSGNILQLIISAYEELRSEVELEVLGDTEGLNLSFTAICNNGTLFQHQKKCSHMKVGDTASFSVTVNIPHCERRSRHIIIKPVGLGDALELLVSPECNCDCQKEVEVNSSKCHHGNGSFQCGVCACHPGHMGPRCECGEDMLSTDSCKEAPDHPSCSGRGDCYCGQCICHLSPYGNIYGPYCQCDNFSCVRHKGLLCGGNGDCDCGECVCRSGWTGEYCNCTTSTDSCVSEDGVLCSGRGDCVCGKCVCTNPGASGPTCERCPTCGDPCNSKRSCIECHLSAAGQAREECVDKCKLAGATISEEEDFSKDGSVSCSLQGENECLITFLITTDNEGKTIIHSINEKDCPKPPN

PEGylated A20FMDV2 not bearing K(IPA)E (peptide)
bound (%) [1]: 52% | IC50 [2]: 2 nM | internalized (% of bound radioactivity) [3]: 44%
